Numbering of substitutions follows the chain as printed. Names and notes keep the numbering of the source.
T1: EsCas13d, nuclease-dead (Eubacterium siraeum, UniProt B0MS50, R295A;H300A;R849A;H854A)
T1 sequence: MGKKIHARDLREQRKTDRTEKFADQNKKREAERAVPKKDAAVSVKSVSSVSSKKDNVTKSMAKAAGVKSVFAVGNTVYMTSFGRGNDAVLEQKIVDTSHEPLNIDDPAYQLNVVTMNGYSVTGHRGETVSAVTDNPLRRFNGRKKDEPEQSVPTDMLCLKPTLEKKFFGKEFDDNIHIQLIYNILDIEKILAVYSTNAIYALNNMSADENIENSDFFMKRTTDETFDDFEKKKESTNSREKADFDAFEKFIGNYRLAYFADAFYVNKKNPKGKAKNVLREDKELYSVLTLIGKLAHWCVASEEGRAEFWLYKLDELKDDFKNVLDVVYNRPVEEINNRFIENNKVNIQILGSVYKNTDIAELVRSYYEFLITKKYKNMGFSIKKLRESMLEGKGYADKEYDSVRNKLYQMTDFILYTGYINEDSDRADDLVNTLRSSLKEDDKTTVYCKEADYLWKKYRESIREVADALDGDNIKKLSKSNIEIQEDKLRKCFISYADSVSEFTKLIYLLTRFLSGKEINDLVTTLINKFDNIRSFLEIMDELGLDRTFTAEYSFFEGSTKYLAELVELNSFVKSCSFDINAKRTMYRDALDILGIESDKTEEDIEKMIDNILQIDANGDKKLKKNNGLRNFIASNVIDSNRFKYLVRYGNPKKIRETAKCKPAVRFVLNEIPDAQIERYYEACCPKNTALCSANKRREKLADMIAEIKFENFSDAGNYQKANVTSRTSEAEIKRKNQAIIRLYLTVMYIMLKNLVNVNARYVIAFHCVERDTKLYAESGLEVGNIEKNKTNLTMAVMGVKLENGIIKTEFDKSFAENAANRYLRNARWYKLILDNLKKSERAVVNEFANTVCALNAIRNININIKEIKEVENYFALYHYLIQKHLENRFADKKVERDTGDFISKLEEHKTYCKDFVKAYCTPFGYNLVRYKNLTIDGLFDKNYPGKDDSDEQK

B1: target 1 MT 5'PFS GUG 3'PFS UUU (mixed)
RNA 1: CACCCGUGCAAAAAUGCAGGGGUCUAAAACUGAGCGGAUAACCUCUCUAUGG
RNA 2: GGGAAUGGAUCCACAUCUACGAAUUCGUGCCAUAGAGAGGUUAUCCGCUCAUUUAGAUCGGAAGAGCACACGU
B2: target 1 MT 5'PFS CUG 3'PFS AAA (mixed)
RNA 1: B1 RNA 1
RNA 2: B1 RNA 2 with G27C, U52A, U53A, U54A
B3: target 1 MT 5'PFS UUU 3'PFS UCC (mixed)
RNA 1: B1 RNA 1
RNA 2: B1 RNA 2 with G27U, G29U, U53C, U54C
B4: target 1 MT 5'PFS CUA 3'PFS ACC (mixed)
RNA 1: B1 RNA 1
RNA 2: B1 RNA 2 with G27C, G29A, U52A, U53C, U54C
B5: target 1 MT 5'PFS GAG 3'PFS CCG (mixed)
RNA 1: B1 RNA 1
RNA 2: B1 RNA 2 with U28A, U52C, U53C, U54G
B6: target 1 MT 5'PFS AAA 3'PFS AGA (mixed)
RNA 1: B1 RNA 1
RNA 2: B1 RNA 2 with G27A, U28A, G29A, U52A, U53G, U54A
B7: target 1 MT 5'PFS AGC 3'PFS CUA (mixed)
RNA 1: B1 RNA 1
RNA 2: B1 RNA 2 with G27A, U28G, G29C, U52C, U54A
B8: target 1 MT 5'PFS UUG 3'PFS UUA (mixed)
RNA 1: B1 RNA 1
RNA 2: B1 RNA 2 with G27U, U54A
B9: target 1 MT 5'PFS AGC 3'PFS CUU (mixed)
RNA 1: B1 RNA 1
RNA 2: B1 RNA 2 with G27A, U28G, G29C, U52C
B10: target 1 MT 5'PFS UGC 3'PFS UAG (mixed)
RNA 1: B1 RNA 1
RNA 2: B1 RNA 2 with G27U, U28G, G29C, U53A, U54G
B11: target 1 MT 5'PFS GCG 3'PFS AUG (mixed)
RNA 1: B1 RNA 1
RNA 2: B1 RNA 2 with U28C, U52A, U54G
B12: target 1 MT 5'PFS GCG 3'PFS AUC (mixed)
RNA 1: B1 RNA 1
RNA 2: B1 RNA 2 with U28C, U52A, U54C
B13: target 1 MT 5'PFS CUA 3'PFS ACA (mixed)
RNA 1: B1 RNA 1
RNA 2: B1 RNA 2 with G27C, G29A, U52A, U53C, U54A
B14: target 1 MT 5'PFS CAG 3'PFS AGC (mixed)
RNA 1: B1 RNA 1
RNA 2: B1 RNA 2 with G27C, U28A, U52A, U53G, U54C
B15: target 1 MT 5'PFS CCU 3'PFS CCG (mixed)
RNA 1: B1 RNA 1
RNA 2: B1 RNA 2 with G27C, U28C, G29U, U52C, U53C, U54G
B16: target 1 MT 5'PFS CUA 3'PFS ACG (mixed)
RNA 1: B1 RNA 1
RNA 2: B1 RNA 2 with G27C, G29A, U52A, U53C, U54G
B17: target 1 insA 3' of 21,insC 3' of 13 (mixed)
RNA 1: B1 RNA 1
RNA 2: GGGAAUGGAUCCACAUCUACGAAUUCGUACCAAUAGAGAGCGUUAUCCGCUCACCGAGAUCGGAAGAGCACACGU
B18: target 1 MT 5'PFS ACU 3'PFS UAU (mixed)
RNA 1: B1 RNA 1
RNA 2: B1 RNA 2 with G27A, U28C, G29U, U53A
B19: target 1 MT 5'PFS UCA 3'PFS AGA (mixed)
RNA 1: B1 RNA 1
RNA 2: B1 RNA 2 with G27U, U28C, G29A, U52A, U53G, U54A
B20: target 1 MT 5'PFS UCA 3'PFS CGG (mixed)
RNA 1: B1 RNA 1
RNA 2: B1 RNA 2 with G27U, U28C, G29A, U52C, U53G, U54G
B21: target 1 MT 5'PFS CCC 3'PFS CUG (mixed)
RNA 1: B1 RNA 1
RNA 2: B1 RNA 2 with G27C, U28C, G29C, U52C, U54G
B22: target 1 MT 5'PFS UGC 3'PFS UAA (mixed)
RNA 1: B1 RNA 1
RNA 2: B1 RNA 2 with G27U, U28G, G29C, U53A, U54A
B23: target 1 MT 5'PFS GUG 3'PFS GUA (mixed)
RNA 1: B1 RNA 1
RNA 2: B1 RNA 2 with U52G, U54A
B24: target 1 MT 5'PFS CCC 3'PFS CUA (mixed)
RNA 1: B1 RNA 1
RNA 2: B1 RNA 2 with G27C, U28C, G29C, U52C, U54A
B25: target 1 MT 5'PFS CAG 3'PFS AGU (mixed)
RNA 1: B1 RNA 1
RNA 2: B1 RNA 2 with G27C, U28A, U52A, U53G
B26: target 1 MT 5'PFS AAC 3'PFS CGG (mixed)
RNA 1: B1 RNA 1
RNA 2: B1 RNA 2 with G27A, U28A, G29C, U52C, U53G, U54G
B27: target 1 MT 5'PFS UCA 3'PFS AGU (mixed)
RNA 1: B1 RNA 1
RNA 2: B1 RNA 2 with G27U, U28C, G29A, U52A, U53G
B28: target 1 MT 5'PFS CUA 3'PFS ACU (mixed)
RNA 1: B1 RNA 1
RNA 2: B1 RNA 2 with G27C, G29A, U52A, U53C
B29: target 1 MT 5'PFS ACG 3'PFS CGA (mixed)
RNA 1: B1 RNA 1
RNA 2: B1 RNA 2 with G27A, U28C, U52C, U53G, U54A
B30: target 1 MT 5'PFS CAC 3'PFS AUC (mixed)
RNA 1: B1 RNA 1
RNA 2: B1 RNA 2 with G27C, U28A, G29C, U52A, U54C
B31: target 1 MT 5'PFS CAC 3'PFS AUA (mixed)
RNA 1: B1 RNA 1
RNA 2: B1 RNA 2 with G27C, U28A, G29C, U52A, U54A
B32: target 1 MT 5'PFS GUC 3'PFS AAC (mixed)
RNA 1: B1 RNA 1
RNA 2: B1 RNA 2 with G29C, U52A, U53A, U54C
B33: target 1 MT 5'PFS UCA 3'PFS AGG (mixed)
RNA 1: B1 RNA 1
RNA 2: B1 RNA 2 with G27U, U28C, G29A, U52A, U53G, U54G
B34: target 1 MT 5'PFS UCG 3'PFS UCU (mixed)
RNA 1: B1 RNA 1
RNA 2: B1 RNA 2 with G27U, U28C, U53C
B35: target 1 insC 3' of 11,insU 3' of 5 (mixed)
RNA 1: B1 RNA 1
RNA 2: GGGAAUGGAUCCACAUCUACGAAUUCGUACCAUAGAGAGGUCUAUCCGUCUCACCGAGAUCGGAAGAGCACACGU
B36: target 1 G13A,C22A (mixed)
RNA 1: B1 RNA 1
RNA 2: B1 RNA 2 with G29A, C30A, G39A, U52C, U53C, U54G
B37: target 1 MT 5'PFS GCG 3'PFS AUU (mixed)
RNA 1: B1 RNA 1
RNA 2: B1 RNA 2 with U28C, U52A
B38: target 1 MT 5'PFS GCG 3'PFS AUA (mixed)
RNA 1: B1 RNA 1
RNA 2: B1 RNA 2 with U28C, U52A, U54A
B39: target 1 MT 5'PFS UCA 3'PFS CGC (mixed)
RNA 1: B1 RNA 1
RNA 2: B1 RNA 2 with G27U, U28C, G29A, U52C, U53G, U54C
B40: target 1 MT 5'PFS AAC 3'PFS UUG (mixed)
RNA 1: B1 RNA 1
RNA 2: B1 RNA 2 with G27A, U28A, G29C, U54G

The binders below were run against T1, EsCas13d, nuclease-dead (assay: crRNA (strand 1, pre-loaded); Mg2+; 40 mM Tris-HCl pH 7.5, 150 mM NaCl, 6 mM MgCl2, 1 mM DTT, 0.1% Tween-20, 0.2 mg/ml BSA; 25 C; 10 min per concentration, then washed). Conditions: tags: His6-TwinStrep-SUMO cleaved; N-terminal SNAP kept (SNAP-Surface 488); label: 3' end held by stalled T7 RNA polymerase.
For B1, the Kd was 9.05 ± 0.495 nM. Work on B2 yielded a Kd of 10.6 ± 2.7 nM. B3 showed a Kd of 90 ± 45 nM. In the case of B4, the Kd is reported as 5 ± 1.85 nM. Binder B5 has a Kd of about 25 nM. Work on B6 yielded a Kd of 33 ± 12.5 nM. Binder B7 has a Kd of 13.9 ± 4.8 nM. With B8 the Kd was 20.1 ± 3.2 nM. B9 showed a Kd of 9.35 ± 3.2 nM. Work on B10 yielded a Kd of 15.9 ± 4.1 nM. With B11 the Kd was 30.5 ± 8 nM. B12 showed a Kd of 22 ± 6 nM. B13 was tested, and the Kd was 9.65 ± 2.5 nM. Work on B14 yielded a Kd of 20.5 ± 9 nM. B15 showed a Kd of 16.5 ± 7.5 nM. B16 gave a Kd of 6.05 ± 1.8 nM. For B17, the Kd was 32 ± 4 nM. B18 gave a Kd of about 72.5 nM. In the case of B19, the Kd is reported as 20.5 ± 8.5 nM. B20 showed a Kd of 52.5 ± 25 nM. For B21, the Kd was about 9.5 nM. For B22, the Kd was 16 ± 4.5 nM. B23 gave a Kd of 12.2 ± 1.6 nM. B24 gave a Kd of about 17 nM. B25 showed a Kd of 57 ± 22.5 nM. B26 gave a Kd of 31 ± 7 nM. Binder B27 has a Kd of 24.6 ± 5.5 nM. Work on B28 yielded a Kd of 4.95 ± 1 nM. With B29 the Kd was 28 ± 12 nM. With B30 the Kd was about 28.5 nM. B31 was tested, and the Kd was about 17 nM. B32 gave a Kd of 36.5 ± 17.5 nM. B33 gave a Kd of about 100 nM. For B34, the Kd was 36 ± 10.5 nM. For B35, the Kd was 15 ± 0.8 nM. For B36, the Kd was 9.6 ± 0.5 nM. For B37, the Kd was 20 ± 7.5 nM. In the case of B38, the Kd is reported as 16.2 ± 2.5 nM. In the case of B39, the Kd is reported as 10.8 ± 3.85 nM. For B40, the Kd was 15.3 ± 3.3 nM.

Source: publication PMC10786891, “Massively parallel profiling of RNA-targeting CRISPR-Cas13d”
